Laboratory results as given in patent US12410253B2, “Compositions comprising anti-NRP2 antibodies” (aTyr Pharma, Inc., priority 2019, dated 2025).
“Also recorded” adds a separate entry of the source.

Legend:
MDA-MB-231 cells = details: mouse, in vivo
Experimental: The dosing regimen was initiated when the mean tumor volume of all study animals reached 50-100 mm^3.
Treatment Regimen. Twenty (20) NSG mice (Jackson Laboratory, female, 5-6 wks old) were used in this study. The animals were assigned to two study groups of 10 mice randomly. The MDA-MB-231 cell line was prepared for injection as described in the Materials and Methods.
1.25×10^6 cancer cells in PBS with 20% matrigel were injected orthotopically into the mammary fat pad. The day on which the tumor was implanted is designated as Day 0.

Human NRP2 (aa23-855) = target: T1, Human NRP2 (aa23-855) (Homo sapiens, UniProt O60462); assay: SPR binding affinity of anti-NRP2 antibodies to human NRP2 antigen; details: KD = kd/ka, Langmuir (1:1) model
T1 construct: Human NRP2 (aa23-855)
T1 sequence (O60462 23-855 isoform O60462-3): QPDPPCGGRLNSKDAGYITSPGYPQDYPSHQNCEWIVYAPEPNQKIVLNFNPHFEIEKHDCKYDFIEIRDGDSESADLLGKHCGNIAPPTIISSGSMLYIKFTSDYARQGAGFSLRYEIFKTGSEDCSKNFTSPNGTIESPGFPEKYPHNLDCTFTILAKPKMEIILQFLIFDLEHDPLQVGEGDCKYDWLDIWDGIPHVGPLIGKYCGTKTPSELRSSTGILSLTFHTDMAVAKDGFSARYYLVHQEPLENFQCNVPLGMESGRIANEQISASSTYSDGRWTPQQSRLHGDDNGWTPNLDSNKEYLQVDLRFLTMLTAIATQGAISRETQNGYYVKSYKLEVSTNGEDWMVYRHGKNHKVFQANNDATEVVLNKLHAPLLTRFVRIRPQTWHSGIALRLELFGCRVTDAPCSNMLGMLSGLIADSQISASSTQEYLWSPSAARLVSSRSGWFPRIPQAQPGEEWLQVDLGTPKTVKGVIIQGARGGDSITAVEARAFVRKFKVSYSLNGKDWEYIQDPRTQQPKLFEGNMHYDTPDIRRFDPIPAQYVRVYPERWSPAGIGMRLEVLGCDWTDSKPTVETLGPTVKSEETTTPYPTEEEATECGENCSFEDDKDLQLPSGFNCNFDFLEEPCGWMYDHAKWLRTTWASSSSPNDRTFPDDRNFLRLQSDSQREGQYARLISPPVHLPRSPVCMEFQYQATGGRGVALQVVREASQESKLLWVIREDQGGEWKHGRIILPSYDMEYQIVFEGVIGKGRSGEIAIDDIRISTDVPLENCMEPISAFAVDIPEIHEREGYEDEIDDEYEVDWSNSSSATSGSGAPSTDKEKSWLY
Experimental: Anti-NRP2 antibody binding and affinity measurements. […] SPR experiments were conducted on a Bio-Rad ProteOn XPR36 Protein Interaction Array instrument. Biotinylated anti-human antibody (ThermoFisher Cat #7103302100) was immobilized on ProteOn NLC sensor chips. Anti-NRP2 antibodies were subsequently flowed over and captured by the anti-human antibody. Human NRP2 antigen protein was flowed over the captured antibody at varying concentrations (150, 50, 16.67, 5.56, 1.85 nM). The sensor chip surface was regenerated between each analyte run to remove anti-NRP2 antibodies and NRP2 protein. Data was double referenced against a surface with no anti-NRP2 antibody captured (immobilized anti-human antibody only) and a buffer only blank. Affinity constants were derived by globally fitting sensograms to a Langmuir (1:1) interaction model in the ProteOn manager software. For each anti-NRP2 antibody, data from the multiple NRP2 concentrations was fit as a single data set with dissociation rate constant (kd), association rate constant (ka) and Rmax values as global parameters. The reported binding affinity is the equilibrium dissociation constant (KD) calculated from kd/ka. • Running buffer: 50 mM HEPES, 300 mM NaCl, 5 mM CaCl2), 0.005% Tween-20, pH 7.4 • Immobilized antibody: CaptureSelect Human Fab-kappa Kinetics Biotin Conjugate, ThermoFisher Cat #7103302100 • Antigen: Human NRP2 (aa23-855) with C-terminal Avi-, Myc- and His-tags • Regeneration buffer: 10 mM glycine pH 2.0

B16-F10 tumors = assay: B16-F10 mouse melanoma in C57BL/6 mice; type: in vivo
Experimental: Animals and Animal husbandry. All mice were ear tagged for identification purpose. Upon arrival, animals were examined to ensure that they were healthy. The animals were housed in autoclaved solid floor polycarbonate cages. Housing and sanitation were performed according to industry standards. All animal handling was performed in a laminar flow hood located in a clean room. In all experiments, euthanasia criteria were set for an upper limit on subcutaneous tumor volume (usually >2,000 mm^3) and body weight loss (usually >20% body weight loss for an individual during the study). Animal work was performed at either Comparative Biosciences, Inc., 786 Lucerne Dr., Sunnyvale, CA 94085 or at aTyr Pharma, 3545 John Hopkins Court, Suite 250, San Diego, CA 92121. The test antibody dosing regimen was initiated once the mean tumor volume reached 50-100 mm^3. Tumor measurements were recorded two times a week until study termination, as described below.
Tumor monitoring. Once palpable, sub-cutaneous tumors were measured three times a week with a digital caliper. Tumor volumes were calculated using formula: Tumor Volume=length×width×width×1/2
Statistical analysis. Data are expressed as mean±SEM o. In experiments in which animals were euthanized due to tumor burden or body weight loss, the terminal tumor volume was carried forward for statistical analysis. […] Significance of difference over time was tested with a 2-way repeated measures ANOVA followed by Dunnett's post-hoc test. Group comparisons were conducted using 1-way ANOVA (parametric or Kruskal Wallis, as noted in the figure legends). A p value <0.05 was considered significant.
Cell culture and implantation. Mouse B16-F10 cell line was purchased from ATCC.
Treatment Regimen. Thirty (30) C57BL/6 mice (Charles River, female, 6-8 wks old) were used in this study. The animals were assigned to 3 study groups of 10 mice randomly, and housed as described in the Materials and Methods. The antibody dosing regimen is shown in Table E4 below; in brief animals received intraperitoneal injections of the control IgG antibody, positive control antibody (Bevacizumab), and anti-NRP2 antibody (as described in the Materials and Methods), administered according to the protocol below (Table E4).

4T1 tumors = assay: 4T1 model of spontaneous metastasis in Balb/c mice; type: in vivo
Experimental: The test antibody dosing regimen was initiated one day before cell injection and animal weights and tumor measurements were recorded three times a week until study termination.
Mouse 4T1 cell line was purchased from ATCC. […] 50,000 cancer cells in PBS were implanted subcutaneously into the right flank of each mouse.
Treatment Regimen. […] The animals were assigned to 3 study groups of 10 mice randomly, and housed as described in the Materials and Methods. The antibody dosing regimen is shown in Table E5 below; in brief animals received intraperitoneal injections of 10 mg/kg of the control IgG antibody, and aNRP2-28 (as described in the Materials and Methods), administered according to the protocol below (Table E5); starting one day before cancer cell implantation until termination on day 23).

[1] = tested on: neo-lymphangiogenesis of the cornea; assay: Corneal alkali-burn injury model of neovascularization (LYVE-1 staining); type: in vivo, mouse; details: IP on Day 0, 3, 7 and 10; Day 14; compared to IgG control; p=0.07
Experimental: Study Design & Treatment Regimen. The study consisted of 40 female C57BL/6 mice separated into four groups. Prior to study, animals were randomized into four groups, 10 mice per group. On Day 0, neovascularization (NV) of the cornea was induced from alkali-burn injury in the eyes of animals under anesthesia. Animals were treated intraperitoneally with control IgG (Group 1), aNRP2-28 (Group 2) and Bevacizumab (Group 3) on post-injury Day 0, 3, 7 and 10. During the in-life phase, animals were monitored with daily clinical observations and weekly body weights. Additionally, ocular assessments of injured eyes were scored and photos taken on post-injury Day 7 and Day 14. All animals were euthanized on Day 14. Injured eyes from all animals were removed and dissected. Whole-mounted corneas were fixed, stained with LYVE-1, and analyzed immunohistochemically to examine the efficacy of Test Articles.

NRP2/PLXNA1 = assay: Split-luciferase receptor dimerization assay, NRP2/PLXNA1 with SEMA3F; type: cell-based, human; details: antibody 100 nM; ligand induced dimerization
Experimental: (§1) To further extend the assessment of the biological activity of the anti-NRP2 antibodies, their activity was assessed in a receptor dimerization assay. In brief, vectors encoding a split luciferase pBiT1.1 and pBiT2.1 were obtained from Promega corporation (Madison, Wisconsin). The complete extracellular domain and transmembrane helices of NRP2a (version 2), NRP2b (version 5) (See table N1), FLT4 (VEGFR3), KDR (VEGFR2), and plexin A1 (PLXNA1) were cloned into the vectors and screened for optimal orientation, receptor density, and ligand induced dimerization, following established methods. Expi293 cells (Fisher) were transfected at 1 million cells/mL ˜20 hours prior to the assay with NRP2 and a co-receptor at equal mass amounts. Cells were counted, and 100,000 live cells were plated in a well of a white luminometer plate in Live Cell Imaging Solution (Fisher). Nano-Glo assay substrate (Promega) was added, and the plate was read on a Glomax 96 luminometer at room temperature to establish baseline luminescence. Antibodies were added to the well at 100 nM and the plate was again read to establish a new baseline and monitor the effects of the antibodies on spontaneous receptor dimerization. Depending on the receptor pair, typically 200 nM SEMA3F-p95 (aTyr Pharma), 2 nM VEGF-C(R&D Systems, Minnesota), or 2 nM VEGF165 (R&D Systems, Minnesota) were then added and the plate was again read to measure dimerization of receptors. Normalized responses for each individual well were calculated to the time point prior to addition of ligand, then normalized to no-antibody/no-ligand (baseline signal). Replicates were then processed to give average response and standard deviation. Results are summarized in Table E3 below, and shown graphically in FIGS. 3-10.

NRP2/FLT4(VEGFR3) = target: T2, NRP2/FLT4(VEGFR3) (Homo sapiens, UniProt O60462); assay: Split-luciferase receptor dimerization assay, NRP2/FLT4 with VEGF-C; type: cell-based; details: antibody 100 nM; ligand induced dimerization
T2 construct: The complete extracellular domain and transmembrane helices of NRP2a (version 2), NRP2b (version 5); expressed in transfected cells; host or cells: Expi293, transient co-transfection
T2 sequence (O60462 23-859 isoform O60462-3 limits assumed): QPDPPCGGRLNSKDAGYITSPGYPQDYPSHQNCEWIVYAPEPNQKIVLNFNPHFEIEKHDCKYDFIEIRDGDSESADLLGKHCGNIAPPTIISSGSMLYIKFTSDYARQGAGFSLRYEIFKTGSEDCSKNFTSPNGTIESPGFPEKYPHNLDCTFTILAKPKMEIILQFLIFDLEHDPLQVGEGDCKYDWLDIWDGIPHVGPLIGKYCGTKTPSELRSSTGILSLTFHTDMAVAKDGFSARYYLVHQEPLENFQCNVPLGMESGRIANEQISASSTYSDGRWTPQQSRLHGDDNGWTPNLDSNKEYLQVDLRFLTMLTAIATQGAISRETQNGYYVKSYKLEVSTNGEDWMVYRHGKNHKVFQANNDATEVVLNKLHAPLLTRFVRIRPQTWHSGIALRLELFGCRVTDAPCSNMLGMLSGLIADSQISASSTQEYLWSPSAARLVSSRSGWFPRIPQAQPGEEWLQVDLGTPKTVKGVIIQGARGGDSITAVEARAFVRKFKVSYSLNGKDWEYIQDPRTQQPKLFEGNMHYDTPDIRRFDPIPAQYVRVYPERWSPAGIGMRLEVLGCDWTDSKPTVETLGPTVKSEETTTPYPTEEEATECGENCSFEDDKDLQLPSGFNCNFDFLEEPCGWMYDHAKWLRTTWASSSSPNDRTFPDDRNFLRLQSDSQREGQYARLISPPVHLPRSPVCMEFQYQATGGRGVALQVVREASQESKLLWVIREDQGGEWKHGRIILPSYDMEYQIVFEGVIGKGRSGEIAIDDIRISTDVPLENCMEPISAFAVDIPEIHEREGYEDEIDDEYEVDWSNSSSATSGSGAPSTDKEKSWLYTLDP
Experimental: as §1

N.N.[Cl][Pt][Cl] [cisplatin, Cisplatin]
body weight (MDA-MB-231 cells): significant loss in body weight

B1: aNRP2-28v2/4: mouse surrogate VEGF blocking antibody recognizing mouse NRP2, functional surrogate for aNRP2-10v10; CDRs SEQ ID NOs: 63-68 (antibody, V domains shown)
VH: QSVKESEGGLFKPTDTLTLTCTVSGFSLSTYSISWVRQAPGNGLEWIGIIGDAGGIIYATWAKSRSTITRSTALNTVTLKMTGLTAADTATYFCARDGTAFDIWGPGTLVTVSS
VL: AYDMTQTPASVEVVVGGTVTIKCQASQSIYSKLGWYQQKPGQPPKLLIYRASTLASGVSSRFKGSGSGTEYTLTISGVQCDDAATYYCQQDYSYINVDNIFGGGTEVVVK
Kd (Human NRP2 (aa23-855)): 59.9 pM | terminal tumor weights (B16-F10 tumors; 25 mg/kg IP BIW): lowest terminal tumor weights | toxicity from animal body weight measurements and observations (B16-F10 tumors; 25 mg/kg IP BIW): no evidence of toxicity | tumor growth (tumor volume) (B16-F10 tumors; 25 mg/kg IP BIW, compared to IgG control group, p<0.05 on Day 14, 16 and 19): tumor growth inhibition | anti-tumor activity relative to Bevacizumab (positive control) (B16-F10 tumors; aNRP2-28 25 mg/kg vs Bevacizumab 5 mg/kg, IP BIW): more potent anti-tumor activity | toxicity from animal body weight measurements and observations (4T1 tumors; 10 mg/kg IP): no evidence of toxicity | metastatic nodules in the lung at termination (4T1 tumors; 10 mg/kg IP days -1 to 23, compared to IgG control, p≤0.05): reduction in metastatic nodules in the lung | neo-lymphangiogenesis, % Lyve-1+ area of cornea [1]: inhibits neo-lymphangiogenesis; also recorded: can inhibit neolymphangiogenesis

B2: aNRP2-14v9: humanized, affinity matured anti-NRP2 antibody, target domain a2; VH SEQ ID NO: 53, VL SEQ ID NO: 54 (antibody, V domains shown)
VH: QLQLVESGGGVVQPGRSLRLSCTVSGFSLTSYGVHWVRQAPGKGLEWVGLIWSGGSTDYSPAFISRFTISEDNSKSTVYLQMNSLRAEDTAVYFCARNSYSSGYYAMDYWGQGTTVTVSS
VL: DIQLTQSPSFLSASVGDRVTITCKASQNVGHAVAWYQQKPGKAPKLLIYSASNRYTGVPSRFSGSGSGTEFTLTISSLQPEDFATYYCQQYSRYPPYTFGGGTKVEIK
modifications: Variable heavy chain region; Light chain variable region
Kd (Human NRP2 (aa23-855)): 150 pM | effect on NRP2-plexin heterodimerization (in words) (NRP2/PLXNA1): extremely potent inhibition | effect on NRP2-VEGFR3 (FLT4) heterodimerization (in words) (NRP2/FLT4(VEGFR3)): no significant impact
